# Measured values taken from the RNAGym collection of RNA variant scans (doi:10.7554/elife.80360).
# B1: CPEB3 Ribozyme (parent)
# chain: GGGGGCCACAGCAGAAGCGUUCACGUCGCGGCCCCUGUCAGAUUCUGGUGAAUCUGCGAAUUCUGCUGU
# Variants of: B1
# Assay: self-cleavage, relative activity (ratio to wild type); higher = more cleavage; co-transcriptional
row,Variant,self-cleavage
1,U46C G50A,0.974
2,U46C G50C,1.04
3,G47C G65C,0.726
4,G47C G65A,0.963
5,G47C G65U,0.908
6,C45U A51C,0.999
7,C45U A51U,0.947
8,U46C A60U,0.472
9,U46C A60C,0.339
10,G47C G58A,0.939
11,G47C G58C,0.977
12,G47C G58U,0.997
13,U46C U55A,0.773
14,U46C U55G,0.768
15,U46C U55C,0.701
16,G47U A59C,0.832
17,G47U A59G,1
18,U46A G68C,0.97
19,U46A G68A,1.02
20,G47U,1
21,G47C,1
22,G47A,1
23,G47A C57A,0.347
24,G47A C57U,0.321

row,Variant,self-cleavage
1,U46A G58C,0.961
2,U46A G58A,0.93
3,U46A G58U,0.988
4,U46A G50C,0.951
5,U46A G50A,0.974
6,G47A G50U,1.01
7,U46C C54G,0.891
8,U46C C54A,0.772
9,G47U C54U,1.05
10,G47U C54A,0.987
11,C45G U61G,0.731
12,C45G U61C,0.757
13,C45G U61A,0.922
14,U46G G56U,0.959
15,U46G G56C,0.65
16,G47U A60U,0.552
17,G47U A60G,0.912
18,G47U A60C,0.386
19,G47C U55C,0.943
20,C45U G48C,0.975
21,C45U G48U,1.01
22,C45U G48A,0.992
23,G47A G68U,1.01
24,G47A G68A,1.01

row,Variant,self-cleavage
1,G47C G48A,0.988
2,C45U C54A,0.681
3,U46A A52C,1.01
4,G47A U69A,1.03
5,G47A U69G,1.05
6,G47A A51G,1.02
7,G47A A51U,0.953
8,U46G A59G,0.965
9,U46G A59U,0.842
10,G47A U67C,0.976
11,G47A U67G,1.06
12,G47U U53C,1.02
13,G47U U53G,0.991
14,C45G U67C,0.917
15,C45G U67A,0.962
16,G47C U53A,0.967
17,G47C U53C,0.992
18,G47C U53G,0.911
19,G47A C63A,0.898
20,G47A A59U,0.872
21,G47U G65C,0.736
22,U46A A51C,0.99
23,U46A A51U,1.01
24,U46C C66G,0.762

row,Variant,self-cleavage
1,U46C C66A,0.763
2,U46C U69A,0.997
3,U46C U69G,1.05
4,U46C U69C,1.06
5,G47U C66A,0.933
6,G47U C66G,0.914
7,G47U C66U,1.02
8,C45G U49G,0.947
9,C45G U49C,0.915
10,G47A G48C,1.03
11,G47A G48A,1.03
12,U46G G47U,0.976
13,U46G G47C,1.02
14,U46G G47A,1.02
15,U46C U53G,0.872
16,U46G C66A,0.786
17,U46G C66G,0.956
18,U46G C66U,0.986
19,U46A C54A,0.933
20,U46A C54G,0.971
21,C45G U46C,0.999
22,C45G U46G,0.966
23,C45G U46A,0.631
24,U46C G68A,1

row,Variant,self-cleavage
1,U46C G68C,0.985
2,G47U A51C,0.997
3,G47U A51U,1.01
4,U46G U64G,0.885
5,U46G U64A,0.916
6,U46G U64C,0.927
7,U46G U49C,1.04
8,U46G U49A,0.972
9,U46G A51C,0.949
10,U46G A51G,0.618
11,U46G A51U,1
12,U46C C63A,0.771
13,U46C C63G,0.796
14,U46C C63U,0.983
15,G47U G50C,1
16,G47U G50A,1.01
17,U46G U62C,0.993
18,U46G U62A,0.948
19,U46G U62G,0.877
20,U46G C63U,1.03
21,U46G C63A,0.869
22,U46G U53C,0.978
23,U46G U53G,0.918
24,U46G U53A,1.01

row,Variant,self-cleavage
1,C45U U61A,0.919
2,C45U U61C,0.887
3,U46C A51U,0.994
4,U46C A51G,0.988
5,U46G U67G,0.995
6,U46G U67A,0.99
7,G47C G56C,0.92
8,G47C G56U,1.02
9,U46A A59G,1.02
10,U46A A59C,0.802
11,U46A U61G,0.902
12,U46A U61C,0.86
13,G47A A60U,0.475
14,C45G C66G,0.877
15,G47A C54A,0.961
16,G47A C54G,0.979
17,G47A A52G,0.969
18,G47C C63U,1.01
19,U46A C63U,1.02
20,G47C U64G,0.938
21,G47C U64A,0.979
22,U46C A59G,1.03
23,U46C A59U,0.847
24,C45U U64G,0.854

row,Variant,self-cleavage
1,C45G U53C,0.806
2,C45G U53G,0.858
3,C45G G68C,1
4,C45G G68A,0.942
5,G47C G68A,1
6,G47C G68C,1.02
7,G47C G68U,0.994
8,G47C C54U,0.987
9,G47C C54G,0.959
10,C45G U69C,1.05
11,C45G U69A,1.01
12,U46G A52U,0.981
13,U46A U55C,0.871
14,U46A U55A,0.964
15,U46C G56U,0.837
16,G47A U53C,0.978
17,G47A U53A,1.02
18,G47A U53G,0.971
19,U46C U62G,0.916
20,U46C U62C,0.895
21,U46C U62A,0.943
22,U46G G68U,0.971
23,U46G G68C,1.04
24,C45G U62C,0.798

row,Variant,self-cleavage
1,C45G U62G,0.81
2,C45G C63U,0.964
3,U46G G58U,0.955
4,C45U G65C,0.719
5,C45U G65U,0.813
6,U46C U49A,0.996
7,U46C U49C,0.913
8,G47C U49G,1
9,G47C U49C,0.981
10,U46C U64G,0.852
11,U46C U64A,0.877
12,U46C U64C,0.936
13,C45G G65U,0.832
14,C45G G65A,0.87
15,C45U U67C,0.955
16,U46G U55G,0.83
17,U46G U55A,0.899
18,U46G U55C,0.936
19,G47A G56U,1.01
20,G47A G56A,1
21,G47A U61C,0.887
22,G47A U61G,0.968
23,U46C G65A,0.893
24,U46C G65C,0.615

row,Variant,self-cleavage
1,U46C G48A,1.03
2,U46C G48C,1.02
3,U46C G48U,1.02
4,C45U A59G,0.98
5,C45U A59U,0.837
6,G47C C57A,0.32
7,G47C C57U,0.344
8,G47A U62C,0.933
9,G47A U62A,0.976
10,U46A C57U,0.309
11,U46A C57G,0.31
12,G47A U49G,0.994
13,C45U G68U,1.01
14,C45U G68C,1
15,C45G G58C,0.946
16,C45G G58U,1.01
17,C45G G58A,0.919
18,C45G U55G,0.648
19,C45G U55C,0.487
20,C45G U55A,0.797
21,U46G A60U,0.413
22,U46G A60C,0.413
23,U46G A60G,0.952
24,U46G G50U,0.962

row,Variant,self-cleavage
1,U46G G50A,0.981
2,U46C U67A,0.938
3,U46C U67C,0.962
4,U46C U67G,0.977
5,U46A U62G,0.925
6,U46A U62C,0.895
7,C45U U55A,0.825
8,C45U U55G,0.668
9,C45U U55C,0.755
10,G47C A60U,0.562
11,G47C C66G,0.91
12,G47C C66A,0.897
13,U46A G56A,0.997
14,C45U C57A,0.32
15,C45U C57G,0.319
16,U46A G48C,1.01
17,U46A G48A,1.01
18,U46A G48U,0.991
19,C45G G56A,0.881
20,G47C U67G,1.06
21,G47C U67C,0.993
22,U46G U61G,0.878
23,U46G U61C,0.941
24,U46G U61A,0.958

row,Variant,self-cleavage
1,U46C C57A,0.373
2,G47U U49G,0.989
3,U46G U69C,1.07
4,C45U,0.996
5,U46C U61A,0.95
6,U46A U67C,1.01
7,U46A U67G,1.03
8,C45G G50C,1.01
9,C45G G50A,1.01
10,U46C A52C,0.943
11,U46C A52G,1
12,G47A G65U,0.858
13,G47A G65C,0.79
14,G47U G48C,1.02
15,U46G C54G,0.907
16,U46C G58A,0.979
17,C45U G56C,0.694
18,C45U G56U,0.897
19,C45U U69C,1.08
20,C45U U69A,1.05
21,G47U G58U,0.994
22,G47U G58C,0.963
23,G47U G58A,0.946
24,G47A C66G,0.953

row,Variant,self-cleavage
1,G47A C66U,0.959
2,C45U U62A,0.908
3,U46A A60G,0.91
4,U46A A60C,0.346
5,G47A G58A,0.96
6,G47A G58C,0.951
7,U46G G65C,0.681
8,G47U A52U,0.973
9,G47C A52U,1.05
10,G47C A52C,0.946
11,G47C A52G,1
12,U46A C66A,0.924
13,U46A C66G,0.961
14,U46A C66U,0.972
15,U46G C57G,0.303
16,U46G C57A,0.354
17,U46G C57U,0.391
18,G47C A51C,1.04
19,G47U U55G,0.937
20,G47U U55A,0.961
21,G47C U61A,0.97
22,G47C U61G,0.937
23,G47U C57A,0.396
24,G47U C57U,0.378

row,Variant,self-cleavage
1,G47U C57G,0.311
2,C45U C63A,0.838
3,U46A U69A,0.991
4,U46A U69C,1.07
5,C45U U53C,0.834
6,G47U G56C,0.885
7,G47U G56A,0.966
8,G47C U69C,1.06
9,C45U A52U,0.972
10,C45U A52C,0.988
11,C45U A52G,1.01
12,U46A U64G,0.964
13,U46A U64A,0.955
14,G47A U55C,0.966
15,G47A U55G,0.91
16,C45U G50A,1.01
17,C45U G50C,1.02
18,U46C G47A,0.682
19,U46C G47C,1.02
20,C45U C66G,0.87
21,C45U C66A,0.843
22,C45U U49A,0.993
23,G47C A59G,0.958
24,G47C A59U,0.863

row,Variant,self-cleavage
1,G47C A59C,0.837
2,C45G U64G,0.739
3,C45G U64C,0.836
4,C45U G47U,1.02
5,C45U G47A,1.03
6,U46A G47U,0.991
7,U46A G47A,1.01
8,G47C G50C,1.02
9,G47C G50U,0.998
10,U46A G65U,0.926
11,U46A U49A,1.02
12,C45G G48A,1.01
13,C45G G48U,1.02
14,C45G G48C,1.01
15,G47A U64A,0.958
16,G47A U64C,0.974
17,C45G G47A,1.03
18,G47C U62G,0.901
19,G47C U62A,1
20,C45U A60C,0.33
21,C45U A60U,0.469
22,C45U A60G,0.9
